According to a protein production outcome set (Wang et al. 2014):

Test: label from the status in PepcDB records

| Sequence | protein production |
| --- | --- |
| MTDATVGDEAAAPTVVRLDASCTTQEVEAGEYYHATVNGVVEYGAFVDLSEHVSGLIHESTYSGDPDLAVDDDVIVHLSAVRDNGDLSFEFVDPEEYRTEQRSHAYERTTADAVGSRIGDTVHIEGEVVQIKQTAGPTVFRVRDETSAIPCTAFEDAGVRAHPGVEVGDIVHVSGDADDREGTTQLEVDAFEVLSGGDSADVARRLDAALAEQADPVDVDALVDWPALEQLLPDLRSVARTLRRAVLEGRPIRMRHHADGDGMCASLPVQYALRQFIEDTHQDEDAARHLLKRLPSKAPYYEMEDATRDLNFALEDRARHGQKLPLLLMLDNGSTEEDTPAYKTLDNYDIPIVVVDHHHPDPGAVDPLVDEHVNPYLHGEDYRITTGMLCVELARMIYPGITSDLEHVPAVAGLSDRSKADAMTDYLDLARDAGYDESFLQQMSEALDYEAYMLRYDHGTQVIADILNVDGDAQRHRELVPFLDRLASEAVAEQLDATRSHVEHERVASGANLYRIDVENHAHRFTYPRAGENNRRDPRPQGRGNRGAGDHHRLRPGLRGAPVGRRAPGHPHDGRRTQRRTPWGRRLRRRPPGRRLDPVRSRDA | failed |
| MDPESIMAADGTDSAPANGGLAMENVCVKENGAVSVETVDTTSESQNENSANSSTLDTIEHVKEAAEGTQVEHVDDSKCMKGEKAQRKPRHEKLSGGKNNSSVHIKKSKEGKSADAKVAASNGSVAPNVQTTNPLKSKSFNGREAQVTKQGKHDSAPAESADGEKVKPKSQKKQAHETSEDDTQSSNSPKADDGKPRKVGALPNYGFSFKCDQRAEKRKEFYVKLEEKTHAKEEEINSMQAKSKETQEAELRMLRKSLNFKATPMPSFYQEPQPPKTELKKIPPTRPKSPKLGRKKTASGADSEETQTPRLGRLSLDERASKDNPTAKGIMPTVDLKKQPVRKSLPRLPSQKTVLPDGKPAPAKAAIIPAKVRPEKKKLEKDAETVNQTSHPTEEEAQVTVSSNADVEDSHETVSPRMNEDRADKSIEVSEAVAVEH | failed |
| MCTIFKVNGKIHIKELISSIVIAEGVGALSGFLSMSNVKNYSNLKKPFFSPPGFIFPIVWVILYFLMAVAAYRIWVIGKEESKDVKKALVLYAVQLLFNFLWSIIFFKFNCYGAAFIELLILLFFILCATFQFHKHDKVAAFLMIPYILWVSFAGILNFAIWFLNRNSST | failed |
| MPKLSVIVPTFNRQVLLEKAIKSIQNQDFKDLEIIVSDDNSSDDTKSVVQNLQKDDDRIKYFLNQNYKQGPNGNKNNGLDQASGEFVTFLDDDDELLSGALSTLMQKANEGYAHVFGNCLIEKEGNLSKEFSGKGLEKDSEISKKDFLMAKFSGEFFSVFKKSLLENKRFNEEFYGNEATLWVNLYKEKSFYIHKAFRIYRIFRQDSVTLGASKNAYRVYLGYLELAKILENELRMSKDKDYKKTCASYYKMAAYYAKLAKNYKALYKCLFKSLSIKINAPALILLILSIIPNNMIEKLSKIRVALCKN | failed |
| MISNFIKRAITGILFVAILVGCILYNSFSFGILFMAISALTIYEFGQLINSRAEGVNVNKTIIMLGGAYLFLAVMGFCIDAADSKIFIPYLLLLLYLMISELYLKKASSMLNWAYSMLSQLYIGLPFALLNVLAFHTDPEYSSVSYNPILPLSIFIFLWLSDTGAYCVGSLIGKHRLFERISPKKSWEGSIGGGVVAIGASFVLAHYFTIMSMWEWAGLALVVVVFGTWGDLTESLLKRQLHVKDSGTILPGHGGMLDRFDSALMAIPAAVFYLYALTWF | failed |
| MRFLFLLFIVFPAIEIGIFLFLGNLIGILPTVLFMILTGIIGAAAAKKQGTEVYYKVQRDLQYGKMPGEAIADGLCIFIGGLLLMLPGFLSDLAGACLLIPFTRGWCKPILFKWLRGMSKNKRIIIK | failed |
| MGFIVFCLIAYFVISHLSNKKDVSGNKANSNCPYCNAAFYLTENGDFNCSNCGRLFKYRDGIVYRQDERLPIVVELACTLFTILCKADGVVTKDEVSITKELLEKNFGLEDKDMKMAIDILNKSKSKPYTKTIINDLNNIFNNYDFSKTDAEDYKELILRCAMIIAFCDDGEPSNNQNKILDDIVSIFNISATKYTNLLNYFRDNCIEKNKNDYYEILGVSEGASKEEIRAAFRKLSKLYHPDRYSSKDLPPEIIKEFEEKLAKIIEAYEALK | failed |
| MDQLNKITPTGTEKVSESSCNKLEETCTKCGKNIYKKVTILGIDRIVKTMCECESKAWHEKRQHEEMLKKQNRLNELITNSLMDEKFRESNFENWDFNKGSRSMYNLGRRYADNFKECKQQGLGLLIYGSAGNGKTYLASAIANELLKQYIPVVCVSINGLLSRIQKTYNSWGKEAESDIIRSFINADLLIIDDLGTEKSSEWSRSMIYNIVDSRYRSKLPLIITSNLEINPSKRHGVLADQYHERTESRIFEMCTPVENTSKSIRIEEAKKKTELLRKILY | failed |
| MTPDSSVYKALLESTKAIPWKINWQTMAFEYIGPQIEALLGWPQGSWKSVEDWATRMHPEDQEWVVNFCVKQSECGVDHEADYRALHRDGHYVWIRDVVHVVRDDSGEVEALIGFMFDISLEHHHHHH | not failed |
| MEPANMTVAEYLNYWLDTYPKNNVAPSTYRRYTEFAAHIKTHIGGIMMPKLKPAHIQSFYSSLLEKNLSKSTVLKIHRMLHLALKHAVNWQIIISNPTDAVTLEHHHHHH | failed |
| MSVAILAQEKLGDCVLLTPLVRNLRQAFPDLEIHLITFSRASANFFMNDPQVTAVHLVKKQPRRYFREVLSRKFDLLFNTKDHPSTWFLLQSALIRARFKVGHNNPFHEGLYDRLLDTEFHAHMAVKNCALLPLLGVTADTEACRPSLEHHHHHH | not failed |
| MNIVENEICIRTLIDDDFPLMLKWLTDERVLEFYGGRDKKYTLESLKKHYTEPWEDEVFRVIIEYNNVPIGYGQIYKMYDELYTDYHYPKTDEIVYGMDQFIGEPNYWSKGIGTRYIKLIFEFLKKERNANAVILDPHKNNPRAIRAYQKSGFRIIEDLPEHELHEGKKEDCYLMEYRYDDNATNVKAMKYLIEHYFDNFKVDSIEIIGSGYDSVAYLVNNEYIFKTKFSTNKKKGYAKEKAIYNFLNTNLETNVKIPNIEYSYISDELSILGYKEIKGTFLTPEIYSTMSEEEQNLLKRDIASFLRQMHGLDYTDISECTIDNKQNVLEEYILLRETIYNDLTDIEKDYIESFMERLNATTVFEGKKCLCHNDFSCNHLLLDGNNRLTGIIDFGDSGIIDEYCDFIYLLEDSEEEIGTNFGEDILRMYGNIDIEKAKEYQDIVEEYYPIETIVYGIKNIKQEFIENGRKEIYKRTYKD | failed |
| AKDALLLWCQMKTAGYPNVNVHNFTTSWRDGLAFNAIVHKHRPDLLDFESLKKCNAHYNLQNAFNLAEKELGLTKLLDPEDVNVDQPDEKSIITYVATYYHYFSKMKALAVEGK | not failed |
| MFIKAERLLIRKFEFKDWEAVHEYTSDSDVMKYIPEGVFTEEDTRNFVNKNMGENAKNFPVILIGENILVGHIVFHKYFGEHTYEIGWVFNPKYFNKGYASEAAQATLKYGFKEMKLHRIIATCQPENTPSYRVMEKIGMRREGYFKKCIPHGNEWWDEYYYAILEEE | not failed |
| MALTATVDVELKIRHSVPQRREPTKWRRIMYAITGITGKVGGAMARALLAAGQPVRAIVRDATKGRQWAALGCDVAIATMEDAEALTQAFKGATAVFILPPPVFDPEPFYPEAQAVIDSVATALRAAKPARVVCLSTVGADAVQDNLLSQHTKMETALSALPLALTLLRPAWFLDNVAWDVSSARGAGLIHSFLAPTGRALPMVAAEDVGRVAATLIQQDWSGTRIVELEGPERVSPDDLAAAFTTVLGKPVRAVPVPRETWEALFRSQGMRNPQPRMRMLDGFNEGWIAFADEARTIKGTISATTVVQALVAGEGA | failed |
| MSIRNPNSTLLYRAHSRPPVKLCAPPRSLLPSRRHFSAPRAVVSYPGIRFGFTSPEVLLNRSVVAFAASHEDSGESGVEVGKEKSDIDVEDDTSKEAWKQTLESFKEQVSKMQSVSSEAYSVNSQKAMTVLKETSEQLRIQAEKAKEELGTKAKVVSEEGREYILKAAEESPSDVKEIVEAFASTEDLKNVSRANDFHVGIPYGLLLLVGGFINFMVSGSIPAIRFGVILGGALFALSLASLKSHRKGESSTKFLKGQMAIVAIIFLRELRLLLSQKSTFLGFFTTLTSGGVLGFYLYKMVVKREKGPTLEDGGEDESSDGFVRSEG | failed |
| MTIIKYIKFVVIIVIVTIVFSCSKNEAGNSEYDPSLPISLTDFFPIQGGMATRMVIEGANFGTDLSQIKVFFNQKEASILNVKNSIIYLLVPKLPGNDCIVTVKVGNQEARFTRNFQYIENYSVTTIAGQPGTNLFVEGTLAAAQFGPVQHLAIDDENNLFITERNGSDGKGTCSVLNEESGTVTFLFKASDNLNVPTVNAQTQNVYIPLDGGYTFYELNPVNQWIAKSRLVLHPSKEQQEAGMDDFEINWKHSLAFSRYDNMIYTRSYGGDLIKVDPETRVGQKIGNFFPNTDSFIVAHPTQPEILYIAYAAKHVIYTYNIETGEHKLFAGAFGQSGWNDGIATDAEFNSPRQMSLDMEGNIYIADSGNHCIRMIDKNGIVTTPIGQPGEAGYADGSPDMALLNDPRGVAVNSEGDVYIADLGNRCIRKLTLQ | failed |
| MSQQNTELEGIGKLRSGSLFMILAVLLAAIGILVIISAGMLGGMFSAASGNVSGVIASGIGLLVGIAIVILIGAIIGLIGILRIRSGFGILKSLGRDVGIGEIGTTLYLVGLIIIIIGALLTIVLIGFPILILGEIIALIGGILIGIGFYKVGEIYNEGLVKIGGILIVIPIDLINFVGFILAYVGLGKVRPLPTVAQQPLVPQVYQVGQGTIRNNGYAYITLYSSTPASIISAKIEGANIMSSAINPTVLQIGNNEVTIFFGNVQSLAPNTTYIITLTINIGGNIINISTTAVYQP | failed |
| MIEEERNNYSVFHGLWTLASRELKKWYKAPVILLLSLIQPIFWIGIFGKAMNLGSIFTETTFNIPGLTIPKQVLDQIGLEILKQTFGTTDYFSFLAAGMLSFIVLFTSMQSGMSIVWDRRLGVLDRILTTPVPRGNIIIGKVLSAVIRSLVQATIVLVVAVLLGMTFAPEINPLDFLGVYAALFLMSFGLSSLFLMLALRATSWESQMAIMNLLNLPLLFTSNAFYPVKSMPYWLKPVAYINPLTYSNGVARGMLLGISTNLAIDFLYLGLFAIILSTIGIVLSWKYLSK | failed |
| MSLKNMADLSYVNIFTRDIVAMSAFYQQVFGFQEIESIRSPIFRGLDTGKSCIGFNAHEAYELMQLAQFSETSGIKFLLNFDVDTKEAVDKLVPVAIAAGATLIKAPYETYYHWYQAVLLDPERNVFRINNVLEGHHHHHH | not failed |
| MGDSPMNKNAKPDLAGTAALALDKGDPLLTPASVSQRDDARSQQPLGREALDVFVAWSIIGIFLIMSMAVIHELSMILMPVVMAVVVGMILGISAEKLASYGIPGAGVALILSTLVAAVIFFVVNSLIDPVSQLATEGPALIERSIDRFLPYVQNLRWLNISAATFSMGSMSMESLISRSGEIITLLGANVTPAIVQGLIFLAALLMFLYSRLRLRKALIMVFPARHQRLRTIRIIGSVEKVLGTYFATASLIYAALGVTMIVIAYVGGLSMPLLWGLFAFLSSFVPFLGITLMTISLTIAGIIAHDNMILALLPAGVFFTIHLLMENLAFPAVVGRNMEINPFLVFVMIIFWTWMWGAAGAMLALPLSLIAMTVTRELFPSRRVVPKLPD | failed |
| MSESLDFSPYLERWALQPDGEPFATHSSRLLPVRHRGAAAMLKISSAEEERFGHVLLNWWDGQGAARVLAYDHQALLMERATGGRSLLEMVRRGDDDEATRILCQAIERIHAPRPGPLPELTPLERWFDSLYAAERRYGGLYVDCANAARYLLETAREQRPLHGDIHHGNVLDFGERGWQVIDPKRLYGERGYDYANLFTNPDAKTAQAPGRFERQLEIVIAASGLQRRRLLQWILAWTGLSAAWFDEDGSREETEAELAIARLALANLARTPAQ | failed |
| PEQLRSTVRIGTIDSIVQAWLPRFIERVRELYPGLTLDLNVDTSRGIAREIVERKIDLALLMGPVLEAGLRNVDLGSMDCAWVAAPGFGLGGRRIGLADLVDLPILTFSRNSDPHVWLMRQFEELRLPQPAISNSNSLSAML | failed |
